We go through 40 sequences from the nanobody polyreactivity screen of Harvey et al. (2022).

The series is described as follows: yeast display, Sf9 membrane polyspecificity reagent, FACS + sequencing; frameworks hold sequencing errors. The method, boiled down:
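Synthetic nanobody libraries on Saccharomyces cerevisiae BJ5465 were galactose-induced for 36–48 hours, stained 1 hour at 4 °C with 10% biotinylated, detergent-solubilized Sf9 membrane reagent and enriched on streptavidin microbeads. FACS then separated cells into low and high (top ~1%) gates by anti-HA (expression) and streptavidin (reagent binding) fluorescence. Genes were colony-PCR amplified, MiSeq 2 × 250 sequenced and CDR-length filtered. A clone's polyreactivity label is that of its gate of origin.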
With “QVQLVESGGGLVQAGGSLRLSCAASGFTFTQYGMGWYRQAPGKEREFVATIRFSGDNTYYADSVKGRFTISRDNAKNTVYLQMNSLKPEDTAVYYCNADNRAFFVYPVSKRYDSWGQGSQVTVSS”, the “polyreactivity (PSR sort gate)” value is reported as “low polyreactivity”.
As for “QVQLVESGGGLVQAGGSLRLTCAASGIIFRGYAMGWYRQPPGKERELVAGITSGVRTYYADSVKGRFTISRDNAKNTVYLQMTSLKPEDTAVYYSNADAYGDDWKIYDYWGQGTQVTVSS”, the entry is “low polyreactivity”; as for “QVQLVESGGGLVQAGGSLRLSCAASGITFPRNAMGWYRQAPGKERELVAAISARGGNTYYADSVKGRFTISRDNSKNTGYLQMIRLKPEDTAVYDCNALGSSFSEPSEYDYWGQGTQVTVSS”, “low polyreactivity”; as for “QVQLVESGGGLVQAGGSLRLSCAASGSIFPLNAMGWYRQAPGKERELVASISTGSSTYYADSVKGRFTISRDNAKNTVYLQMNSLKPEDTAVYYCAVDRVLFSDYYRGYEYNYWGQGTQVTVSS”, “low polyreactivity”.
As for “QVQLVESGGGLVQAGGSLRLSCAASGSNFETNSMGGYRQAPGQERELVAVIWRGASTYYADSVKARFTISRDNAKNTVNLQMNSLKPDDTAVYYCNARPAYAGRYAYTRYYWGQGTQVTVSS”, the entry is “low polyreactivity”.
As for “QVQLVESGGGLVQAGGSLRLSCAASGRICWYYGLGWYRQAPGKERELVAAITTGGSTYADSVKGRFTISRDNAKNTVYLQMNSLKPEDPAVYYCAADGSYVWRNGWTYFYWGQGTQVTVSS”, the entry is “high polyreactivity”; as for “QVQLVESGGGLVQAGGSLRLSCAASGRTFQDNVMGWYRQAPGKETELVAAINTSSGSTYYADSVKGRFTISRDNAKNTVYLQMNSLKPEDTAVYYCFSYDYDYWGQGTQVTVSS”, “low polyreactivity”.
“QVQLVESGGGLVQAGGSLRLSCAASGIIFGGYAMGWYRQAPGKERELVAAIDSSGSSTYYADSVKGRFTISRDNAKNTVYLQMNSLKPEDTAVYYCNAASSGHSGRLTSIINDYWGQGTQVTVSS”: the “polyreactivity (PSR sort gate)” value is given as “high polyreactivity”.
With “QVQLVESGGGLVQAGGSLRLSCAASGSTFKFNTMGWYRQAPGKERELVAAISWRGGSTYYADSVKGRFTISRDNAKNTVYLQMYSLKPEDTAFYYCAAPWYIRYDSWGQGTQVTVSS”, the “polyreactivity (PSR sort gate)” value was “high polyreactivity”.
On to “QVQLVESGGGLVQAGGSLRLSCAASGSIFSRNAMGWYRQAPGKERELVAAISYSGGTTYYADSVKGRFTISRDYAKNTVYLQMNSLKPEDTAVYYCNKRYWVRTGKVSSYDYWGQGTQVSVSS”, for which the “polyreactivity (PSR sort gate)” value was “high polyreactivity”.
The same measure for “QVQLLESGGGLVQAGGTLPLSCAASGRTFKYYAMGWYRQAPGKERELVAGISSTGRTNYADSVKGRFTISRDNAKNTVYLEMNSLKPEDTAVYYCNAERKSFGKFVYWGQGTLVTVSS”: “high polyreactivity”.
The same measure for “QDQLVESWGALVQAGGRLRLICAASGTIFSRNTMRSYRQAPGKDRELVAGISSSGSRTYYADSVKGRFTISRDNAKNTVYLQMNSLKPEDNAVYYCAAEHQRSRGRRYYIGYDYWGQGTQVTVSS”: “low polyreactivity”; for “QVQLVESGGGLVQAGGSLRLSCAASGSTFQFYAMGWYRQAPGKEREFVAAIDFGGAGTYYADSVKGRFTISRDTAKNTVYLQMNSLKPEDTAVYYCNARDGVTSEFDYWGQGTQVTVSS”: “low polyreactivity”.
The same measure for “QVQLVESGGGLVQAGGSLRLSCAASGRTLYVYAMGWYRQAPGKEREFVAAINSSGDSTYYADSVKGRFTISRDNAKNTVYLQMNSLKPEDTAVYYCAAAGYYGYGYDYWGQGTQVTVSS”: “low polyreactivity”; for “QVQLVESGGGLVQAGGSLRLSCAASGRTFYRYAMGWYRQAPGKERELVAAITWSGGSTYYADSVKGRFTTSRDNAKNTVYFQMNSLKPEDTAVYYCARRLYPYRPTAYDYWGQGTQVTVSS”: “low polyreactivity”; for “QFQLVESRGGLDQAVGSLRLSCAASGFIFAGYVMGLYRQAPGQERELVAGISNSGDNTHYADSVKGRFTISRDNAKNTDYLQMNSLKPEDTAVYYCAAVEQHLAGDDFYSYYYWGQGTQVTLSS”: “low polyreactivity”.
On to “QVQLVESGGGLVQAGGSLRLSCAASGRTFFKYVMGWYRQAPGKERELVAAISSGGSTNYADSVKGRFTISRDNAKNTVYLQMNSLKPEDTAVYYCATYDPARSTQGYDYWGQGTQVTVSS”, for which the “polyreactivity (PSR sort gate)” value was “high polyreactivity”.
With “QVQLVESGGGLVQAGGSLRLSCAASGFTLFDYAMGWYRQAPGKERELVAAITTSGGSTYYADSVKGRFTISRDNAKNTVYLQMNSLKPEDTAVYYCAVEYMLTYYYYVSYEYYYWGQGTQVTVSS”, the “polyreactivity (PSR sort gate)” value was “high polyreactivity”.
As for “QVQLVESGGGLVQAGGSLRLSCAASGFTFTRNAMGWYRQAPGKERELVAAINFRSDRTFYADSVKGRFTISRDNAKNTVYLQMNSLKPEDTAVYYCAAQVGRGYEVYPVYKYGYWGQGTQVTVSS”, the entry is “high polyreactivity”; as for “QFQLVESGGGLVQAGGSLRLSCAASGYIFGRYAMGWYRQPPGKERELVAAISSTGDSTYYADSVKGRFTISRDYAKNTVYLQMNSQKPEDTAVYYCNAVVPRYSYGRYYYWGQGTQVTVSS”, “high polyreactivity”; as for “QVQLVESGGGLVQAGGSLRLSCAASGRTFKQYAMGWYRQAPGKERELVAAISRTGGRTYYADSVKGRFTISRDNAKNTVYLQMNSLKPEDTAVYYCNAVYYWYKGDYWGQGTQVTVSS”, “high polyreactivity”.
Regarding “QVQLVESGGGLVQAGGSLRLSCAASGSILGHYAMGWYRQAPGKERELVAAISWSGGSTYYADSVKGRFTISRDNAKNTVYLQMNSLKPEDTAVYYCNAYLSPKQPLSPPDPTFEGGYWGQGTQVTVSS”, the “polyreactivity (PSR sort gate)” value is “low polyreactivity”.
For the sequence “QVQLVESGGGLVQAGGSLRLSCAASGRTFPPYAMGWYRQAPGKERELVAAIRWSGGDTYYADSVKGRFTISRDNAKNTVYLQMNSLKPEDTAVYYCNAVYYSYSYGYNYWGQGTQVTVSS”, the “polyreactivity (PSR sort gate)” value is given as “high polyreactivity”.
Regarding “QVQLVESGGGLVQAGGSLRLSCAASGLIFRTYTMGWYRQAPGKERELVAAISASGGRTYYADSVKGRFTISRDTAKNTVYLQMNRLKPEDTAVNYFNARVNYKGYDSWGQGTQVTVSS”, the “polyreactivity (PSR sort gate)” value was “high polyreactivity”.
As for “QVQLVESGGGIVQAGGSLRLSCAASGSIFSGYAMGWYRQAPGKERELVAAIDWSGGTTYYADSVKGRFTISRDNAKNTVYLQMKSLKPEDTAVYYCAAKYPWYLSKDTLYYWGQGTQVTVSS”, the entry is “low polyreactivity”; as for “QVQLVESGGGLVQAGGSLRLSCAASGSILKGYAMGWYRQAPGKERELVAAISGSGGSTHYADSVKGRFTISRDNAKNTVYLQMNSLKPEDTAVYYCAAAYKWTYYWGQGTQVTVSS”, “high polyreactivity”; as for “QVQLVESGGGLVQAGGSLRLSCAASGRIFAGYALGWYRQAPGKERELVAAITFRSGTTYYADSVKGRFTISRDNAKNTVYLQMHSLKPEDTAVYYCAARWGPYAFTYVRTYDYWGQGTQVTGSS”, “low polyreactivity”.
The same measure for “QVQLVESGGGLVQAGGSLRLSCAASGSIFYFNAMGWYRQAPGKERELVAAINWRGDRTYYADSVKRRFTISRDNAKNTVYLQMNSLKPEDTAVYYCNAVRVHAYSTGEYGYWGQGTQVTVSS”: “high polyreactivity”; for “QVQLVESGRGLVQAGGSLRLSCAASGRIFSTYAMGWYRQAPGKERELVAAISWRGSSTYYADSVKGRFTISRDNAKNTVYLQMNSLKPEDPAVYYCNADKANRYDWGQGTQVTVSS”: “high polyreactivity”; for “QVQLVESGGGLVQAGGSLRLSCAASGSIFPEYAMGWYRQAPGKERELVAAITTSGGSTYYADSVKGRFTISRDNAKNTVYLQMNSLKPEDTAVYYCAAGTQAHAYVVRPIEMDYWGQGTQVTVSS”: “low polyreactivity”.
As to “QVQLVESGGCLVQAGGSVRLSCDASGITFVGNDMGWYRQAPGKERELVAAISSGSTHYADSVKGRFTISRDNAKNTVYLLMNSLKPEDTAFYYCAADIRGGLSNYSPKDYDYWGLGTQVTVSS”, the “polyreactivity (PSR sort gate)” value was “low polyreactivity”.
The same measure for “QVQLVESGGGLVQAGGSLRLSCAASGFIFIKYAMGWYRQAPGKERELVAGITRSGSSTYYADSVKGRFTISRDNAKNTVYLQMNSLKPEDTAVYYCAAASGSSVGRYGYWGQGTQVTVSS”: “high polyreactivity”; for “QVQLVESGGGLVQAGGSLRLSCAASGSIFGRYVMGWYRQAPGKEREFVAAITYSGSSTYYADSVKGRFTISRDNAKNTVYLQMNSLKPEDTAVYYCNTYPRSFYWMGYWGQGTQVTVSS”: “high polyreactivity”.
The same measure for “QVQLVESWGGLVQAGGSLRLSCAASGRILNYYDMGWYRQAPGKERELVAGISRGGSTTYADSVKGRFTISRDNAKNTVYLQMISLKPEDTAVYYCNADRSHYWLPYGVRFDYWGQGTQVNVSS”: “low polyreactivity”.
As for “QVQLVESGGGLVQAGGSLRLSCAASGSTFAKYAMGWYRQAPGKERELVASIRLSGGSTYYADSVKGRFTISRDNAKNTVYLQMNSLKPEDTALYYCHKQFATFFYGFDYYYWGQGTQVTVSS”, the entry is “low polyreactivity”; as for “QVQLVESGGGLVQAGGSLRLSCAASGRTFGRNAMGWYRQATGKERELVAAISRSGASTYYADSVKGRFTISRDNAKNTVYLQMNSLKPEDTAVYYCAKDVWGSRYAYDYWGQGTQVTVSS”, “low polyreactivity”.
With “QVQLVESGGGLVQAGGSLRLTCAASGRTFVNYAMGWYRQAPGKERELVAAISTSGGSTYYADSVKGRFTISRDNAKNTVYLQMNSLKPEDTAVYYCNKVRYLPDNLRQVTFDYWGQGTQVTVSS”, the “polyreactivity (PSR sort gate)” value is “low polyreactivity”.
As for “QVQLVESGGGLVQAGGSLRLSCAASGRTFRRYAMGWYRQAPGNERELVAAISYNGGRTYYADSVKGRFTISRDNAKNTVYLQMNSLKPEDTAVYYCNARGPSWFGGRYYHWGQGTQVTVSS”, the entry is “high polyreactivity”; as for “QVQLVESGGGLVQAGGSLRLSCAASGRIGYNAMGWYRQAPGKERELVAAISSRGGSTYYADSVKGRFTISRDNAKNTVYLQMNSLKPEDTAVYYCNADYEARTRLGEYDYWGQGTQVTVSS”, “high polyreactivity”.
The same measure for “QVQLVESGGGLVQAGGSLRLSCAASGSIFYYYTMGWYRQAHGKESEFVATMTYSGGSTYYADSVKGRFTISRDNAKNTVYLQMNSLKPEDTAVYYCNARPRYYDWVDYWGQGTQVTVSS”: “low polyreactivity”.
